Values of other authors in paper PMC6200408.

Target: cubilin (Homo sapiens) (UniProt O60494)
Chain of UniProt O60494 (O60494 36-3623): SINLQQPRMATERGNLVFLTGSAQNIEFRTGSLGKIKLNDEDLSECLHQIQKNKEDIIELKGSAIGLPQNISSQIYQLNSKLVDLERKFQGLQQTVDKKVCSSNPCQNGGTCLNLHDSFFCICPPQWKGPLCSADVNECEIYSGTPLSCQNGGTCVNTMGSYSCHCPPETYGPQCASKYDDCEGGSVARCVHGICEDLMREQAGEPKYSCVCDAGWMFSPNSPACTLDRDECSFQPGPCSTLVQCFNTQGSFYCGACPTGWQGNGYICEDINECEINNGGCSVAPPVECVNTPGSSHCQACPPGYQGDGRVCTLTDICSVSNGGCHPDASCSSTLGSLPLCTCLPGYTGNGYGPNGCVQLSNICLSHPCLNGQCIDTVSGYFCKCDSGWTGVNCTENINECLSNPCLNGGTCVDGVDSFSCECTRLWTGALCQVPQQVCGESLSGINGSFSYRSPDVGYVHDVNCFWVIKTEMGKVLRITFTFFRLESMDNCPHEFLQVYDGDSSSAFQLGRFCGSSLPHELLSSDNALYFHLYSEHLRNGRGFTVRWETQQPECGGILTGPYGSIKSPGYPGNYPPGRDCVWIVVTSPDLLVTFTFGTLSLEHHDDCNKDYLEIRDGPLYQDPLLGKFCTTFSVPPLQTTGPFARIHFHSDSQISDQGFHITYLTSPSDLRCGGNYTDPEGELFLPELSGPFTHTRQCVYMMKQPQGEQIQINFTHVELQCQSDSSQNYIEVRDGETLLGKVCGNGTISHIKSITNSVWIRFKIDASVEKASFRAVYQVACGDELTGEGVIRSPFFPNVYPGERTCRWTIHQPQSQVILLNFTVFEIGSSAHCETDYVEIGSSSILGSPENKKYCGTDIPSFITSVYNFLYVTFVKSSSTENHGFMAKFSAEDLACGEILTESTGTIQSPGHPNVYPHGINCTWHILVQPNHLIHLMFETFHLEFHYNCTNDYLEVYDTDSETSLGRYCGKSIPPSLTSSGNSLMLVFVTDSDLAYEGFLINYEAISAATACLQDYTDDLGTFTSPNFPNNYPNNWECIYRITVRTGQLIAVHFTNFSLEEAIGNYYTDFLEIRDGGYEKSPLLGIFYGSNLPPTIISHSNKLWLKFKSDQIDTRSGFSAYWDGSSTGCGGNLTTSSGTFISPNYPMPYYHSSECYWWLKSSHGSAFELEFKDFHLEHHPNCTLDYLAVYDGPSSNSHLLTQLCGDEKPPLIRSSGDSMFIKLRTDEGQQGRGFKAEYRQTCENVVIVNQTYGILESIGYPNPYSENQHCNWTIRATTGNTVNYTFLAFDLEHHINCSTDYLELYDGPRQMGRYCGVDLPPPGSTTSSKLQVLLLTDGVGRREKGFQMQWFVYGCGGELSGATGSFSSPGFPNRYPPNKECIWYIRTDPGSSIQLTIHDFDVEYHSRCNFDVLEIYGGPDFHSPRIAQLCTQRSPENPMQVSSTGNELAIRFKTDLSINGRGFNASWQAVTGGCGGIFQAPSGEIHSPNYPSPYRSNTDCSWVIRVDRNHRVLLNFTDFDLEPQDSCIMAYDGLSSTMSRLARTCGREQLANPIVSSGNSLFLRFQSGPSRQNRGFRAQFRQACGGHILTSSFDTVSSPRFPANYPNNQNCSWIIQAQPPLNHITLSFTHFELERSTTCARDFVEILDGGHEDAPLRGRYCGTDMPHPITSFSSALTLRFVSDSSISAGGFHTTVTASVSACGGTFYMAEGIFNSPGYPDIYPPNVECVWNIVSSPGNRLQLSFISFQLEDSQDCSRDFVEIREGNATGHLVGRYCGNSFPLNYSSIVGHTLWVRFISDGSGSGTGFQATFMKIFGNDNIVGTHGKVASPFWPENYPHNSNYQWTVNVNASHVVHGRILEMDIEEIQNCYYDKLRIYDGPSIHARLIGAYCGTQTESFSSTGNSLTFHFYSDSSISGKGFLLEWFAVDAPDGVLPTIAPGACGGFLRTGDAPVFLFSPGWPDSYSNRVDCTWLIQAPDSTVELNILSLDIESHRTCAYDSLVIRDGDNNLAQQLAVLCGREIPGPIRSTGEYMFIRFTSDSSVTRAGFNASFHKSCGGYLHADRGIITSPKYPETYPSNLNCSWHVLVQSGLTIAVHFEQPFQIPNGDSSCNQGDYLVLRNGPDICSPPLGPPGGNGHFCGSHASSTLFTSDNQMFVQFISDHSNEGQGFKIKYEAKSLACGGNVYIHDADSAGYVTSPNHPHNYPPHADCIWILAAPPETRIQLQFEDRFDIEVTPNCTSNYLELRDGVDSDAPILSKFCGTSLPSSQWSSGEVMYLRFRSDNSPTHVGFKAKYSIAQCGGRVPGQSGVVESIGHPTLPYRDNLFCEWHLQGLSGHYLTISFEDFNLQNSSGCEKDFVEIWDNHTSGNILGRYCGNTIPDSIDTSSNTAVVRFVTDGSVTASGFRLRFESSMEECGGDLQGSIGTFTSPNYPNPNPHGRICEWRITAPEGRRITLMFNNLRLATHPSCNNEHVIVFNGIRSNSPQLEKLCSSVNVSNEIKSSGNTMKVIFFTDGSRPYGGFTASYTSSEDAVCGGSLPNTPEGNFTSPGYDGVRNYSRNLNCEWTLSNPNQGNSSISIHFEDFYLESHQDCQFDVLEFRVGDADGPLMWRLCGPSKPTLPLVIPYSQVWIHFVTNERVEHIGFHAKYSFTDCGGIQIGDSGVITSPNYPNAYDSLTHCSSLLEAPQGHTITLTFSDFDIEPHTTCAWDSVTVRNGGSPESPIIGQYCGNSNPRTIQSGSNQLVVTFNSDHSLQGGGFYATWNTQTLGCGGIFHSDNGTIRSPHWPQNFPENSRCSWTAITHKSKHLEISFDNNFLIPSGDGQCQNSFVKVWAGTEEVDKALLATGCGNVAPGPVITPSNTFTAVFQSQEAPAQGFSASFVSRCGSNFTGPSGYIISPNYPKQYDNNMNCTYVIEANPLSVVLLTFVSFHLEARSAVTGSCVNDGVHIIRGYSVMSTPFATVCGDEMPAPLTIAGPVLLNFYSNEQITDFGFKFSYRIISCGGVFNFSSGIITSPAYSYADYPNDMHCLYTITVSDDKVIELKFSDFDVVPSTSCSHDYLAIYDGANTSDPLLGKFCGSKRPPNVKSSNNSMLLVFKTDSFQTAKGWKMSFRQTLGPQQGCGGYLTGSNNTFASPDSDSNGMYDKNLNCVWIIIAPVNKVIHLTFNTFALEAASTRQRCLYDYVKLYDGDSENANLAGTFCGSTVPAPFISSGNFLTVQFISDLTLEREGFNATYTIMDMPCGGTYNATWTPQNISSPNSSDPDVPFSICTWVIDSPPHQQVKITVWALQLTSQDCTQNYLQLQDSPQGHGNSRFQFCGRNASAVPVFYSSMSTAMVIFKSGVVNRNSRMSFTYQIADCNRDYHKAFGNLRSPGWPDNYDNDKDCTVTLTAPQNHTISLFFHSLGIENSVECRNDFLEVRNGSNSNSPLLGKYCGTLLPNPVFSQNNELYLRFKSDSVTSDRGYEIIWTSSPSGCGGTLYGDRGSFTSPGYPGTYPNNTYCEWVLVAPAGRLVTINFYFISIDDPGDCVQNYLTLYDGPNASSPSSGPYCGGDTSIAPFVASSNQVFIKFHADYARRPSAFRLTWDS

## albumin (from UniProt P02768)
  Kd: 0.6 pM
